According to publication PMC6422494:

Biological target: GST-stx-1A (syntaxin-1A, GST fusion, immobilised on glutathione-sepharose beads) (UniProt P32851)
Experiment: pull-down; GST-stx-1A immobilised on glutathione-sepharose beads; one prey protein (5 µM), 20 hr, 4°C; 100 mM NaCl, 20 mM Tris, 1 mM DTT, 1 mM EDTA, 0.5% Triton X-100, pH 7.4; four washes; SDS-PAGE, Coomassie, molar retention ratio by densitometry

Sequence of UniProt P32851 (P32851 1-262): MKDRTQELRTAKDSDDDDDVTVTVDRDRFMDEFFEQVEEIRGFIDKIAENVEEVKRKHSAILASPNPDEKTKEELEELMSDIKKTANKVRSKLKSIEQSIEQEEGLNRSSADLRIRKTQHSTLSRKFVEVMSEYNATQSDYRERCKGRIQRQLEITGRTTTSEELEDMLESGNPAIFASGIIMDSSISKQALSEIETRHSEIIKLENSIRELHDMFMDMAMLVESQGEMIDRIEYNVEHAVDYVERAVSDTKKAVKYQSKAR

Substance: SN25 L^GGS (6xHis-tagged, recombinant; whole linker aa 83-141 substituted by a flexible G/S peptide) (from UniProt P60881-2 1-82; P60881-2 142-206) (natural protein)
- molar ratio bound, percent lower than WT: 50 % lower
